The record followed here is patent US20180016324A1 (Regeneron, published 2018).

Changes are numbered by the printed parent chain.

The target of assay [1] is T1, ZIKV (prM80E) with a C-terminal myc-myc-hexahistidine tag (Zika virus, UniProt A0A024B7W1 104-694).
T1 construct: also called ZIKV (prM80E)-mmH; ZIKV-mmH
Briefly: SPR, mAb captured, 37C.

Assay [2] has as its target T1, ZIKV (prM80E) with a C-terminal …. Briefly: SPR, mAb captured, 37C, pH 5.5 chase. (Surface plasmon resonance follows binding to a sensor surface in real time, without labels.)
Assay [3] addresses ZIKV envelope glycoprotein (E) of strain PRVABC59 (Puerto Rico 2015) (Zika virus). Put plainly: cell-based or functional assay.
The target of assay [4] is ZIKV envelope glycoprotein (E) of strain FLR (Colombia 2015) (Zika virus). Put plainly: cell-based or functional assay.
Assay [5] has as its target ZIKV envelope glycoprotein (E) of strain MR766 (Uganda 1947) (Zika virus, UniProt Q32ZE1 291-790). Briefly: cell-based or functional assay.
Assay [6] deals with T1, ZIKV (prM80E) with a C-terminal …. Briefly: SPR, mAb captured, 37C, pH 5.0 chase.
Assay [7] has the same target. Briefly: SPR, mAb captured, 37C, pH 6.0 chase.
Assay [8] shares this target. Put plainly: SPR, mAb captured, 25C.
For assay [9] the target is unchanged. Briefly: SPR, mAb captured, 37C. This is another data set of the same source.
In assay [10] the target is T2, ZIKV prM/E polyprotein on virus-like particles (VLPs) from HEK293T/17 cells (Zika virus, UniProt A0A024B7W1 123-795).
T2 construct: also called ZIKV prM/E VLPs; Zika prM/E VLPs
Put plainly: MSD ECL, VLPs on plate.

The target in assay [11] is T1, ZIKV (prM80E) with a C-terminal …. Briefly: SPR, mAb captured, 37C, pH 7.4.
The target is the same in assay [12]. Briefly: SPR, mAb captured, 37C. This is another data set of the same source.

B1: H4H25637P (antibody, V domains shown)
VH: QLQLQESGPGLVKPSETLSLTCTVSGDSISSSNYFWGWIRQPPGKGLEWIGNIYYSGDTYYNPSLKSRVTMSVDTSKKQFSLKLRSVTAADTAVYYCARGRPYYDFWSGYFDYWGQGTLVTVSS
VL: EIVLTQSPGTLSLSPGERATLPCRASQSVSSSYLAWYQQKPGQAPRLLIYGASSRATGIPDRFRGSGSGTDFTLTISRLEPEDFAVYYCQQYGTAPWTFGQGTKVEIK
In the case of B1, the Kd is 9.97 nM in [1] and 6.33 nM in assay [8]. Further, the koff in [1] turned out to be 0.00989 s⁻¹; in assay [2], 0.00414 s⁻¹; in assay [6], 0.00228 s⁻¹; in assay [7], 0.00392 s⁻¹; in assay [8], 0.00391 s⁻¹; in assay [11], 0.0118 s⁻¹. For the same molecule, the kon in assay [1] was 992000 M⁻¹ s⁻¹; in assay [8], 617000 M⁻¹ s⁻¹. In addition, the t½ in [1] was 1.2 min; in assay [2], 2.79 min; in [6], 5.1 min; in assay [7], 2.95 min; in assay [8] it was 3 min; in [11], 0.98 min. Besides, the entries for the “neutralization IC50, Vero cells” value in [3], in [4] and in assay [5] were 0.239 nM, 0.134 nM and 0.0671 nM, respectively. Further, the “t½ pH 7.4/t½ pH 6.0” value in assay [9] came to 0.3. Moreover, the midpoint of the response in assay [10], the EC50, lay at 0.322 nM. In assay [12], the “t½ pH 7.4/t½ pH 5.0” value is 0.2. For the same molecule, in assay [12], the “t½ pH 7.4/t½ pH 5.5” value was 0.4.

B2: H4H25598P (antibody, V domains shown)
VH: EVQLVESGGGLVQPGGSLRLSCAASGFTVSSNYMSWVRQAPGSGLEWVSVIYSGGITHYIGSVKGRFTISRHNSKNTLYLQMNSLRAEDTAMYYCARERYSGITGNPYGFDFWGQGTMVTVSS
VL: DIQLTQSPSFLSASVGDRVTITCWASQDISSYLAWYQQKPGIAPKLLIYSASTLQSGVPSSFSGSGSGTEFTLTISSLQPEDFATYYCQQLNIYPFTFGPGTKVDIK
For B2, the figures for the Kd in assay [1] and in assay [8] were 0.7 nM and 0.156 nM, respectively. The koff in assay [1] came to 0.000284 s⁻¹; in [2], 0.0741 s⁻¹; in assay [6], 0.114 s⁻¹; in [7], 0.0129 s⁻¹; in assay [8] it was 4.49e-05 s⁻¹; in [11], 0.000397 s⁻¹. Further, the kon in [1] is 406000 M⁻¹ s⁻¹; in assay [8] it was 289000 M⁻¹ s⁻¹. Also, the t½ was 40.7 min in [1]; 0.16 min in assay [2]; 0.1 min in assay [6]; 0.9 min in [7]; 257 min in assay [8]; 29.1 min in [11]. Besides, the “neutralization IC50, Vero cells” value in assay [3] came to 0.398 nM; in assay [4], 0.553 nM; in assay [5], 0.0545 nM. Also, in [9], the “t½ pH 7.4/t½ pH 6.0” value is 32.4. The same molecule showed an EC50 in assay [10] of 0.426 nM. For the same molecule, the “t½ pH 7.4/t½ pH 5.0” value in assay [12] stood at 288. Besides, the “t½ pH 7.4/t½ pH 5.5” value in assay [12] came to 187.

B3: H4H25602P (antibody, V domains shown)
VH: B2 VH with I60V, G61D, F112I
VL: B2 VL with S50A, S61R
On to B3, for which the Kd was 0.745 nM in assay [1] and 0.07 nM in assay [8]. The koff in [1] was 0.000284 s⁻¹; in assay [2], 0.0476 s⁻¹; in [6] it was 0.097 s⁻¹; in assay [7], 0.0122 s⁻¹; in assay [8], 1.95e-05 s⁻¹; in assay [11], 0.000356 s⁻¹. Also, the kon in [1] was 381000 M⁻¹ s⁻¹; in assay [8] it was 286000 M⁻¹ s⁻¹. Moreover, the t½ in assay [1] was determined as 40.6 min; in assay [2], 0.24 min; in [6], 0.1 min; in assay [7], 0.95 min; in assay [8] it was 592 min; in assay [11], 32.5 min. Also, the results for the “neutralization IC50, Vero cells” value in assay [3], in assay [4] and in assay [5] were 0.501 nM, 0.63 nM and 0.0531 nM, respectively. Further, the “t½ pH 7.4/t½ pH 6.0” value in assay [9] amounted to 34.1. This molecule came in with an EC50 in assay [10] of 1.56 nM. In addition, the “t½ pH 7.4/t½ pH 5.0” value in assay [12] worked out at 272. Besides, the “t½ pH 7.4/t½ pH 5.5” value in assay [12] came out at 134.

B4: H4H25591P (antibody, V domains shown)
VH: QVQLVESGGGVVQPGRSLRLSCAASGFTFSYSGMHWVRQAPGKGLEWVAVISYDGINKYYADSVKGRFTISRDNSKNTLYLQMNSLRPEDTAVYYCAKDRGGRFDPWGQGTLVTVSS
VL: DIQMTQSPSSLSASVGDRVTITCRASQGISNYLAWYQQKPGKVPNLLIYGASTLHSGVPSRFSGSGSGTDFTLTISSLQPADVATYYCQKYNSAPLTFGGGTKVEIK
For the molecule B4, the Kd was determined as 8.37 nM in [1] and 4.9 nM in [8]. The koff in [1] is 0.00682 s⁻¹; in assay [2], 0.0184 s⁻¹; in assay [6] it was 0.0148 s⁻¹; in [7] it was 0.0136 s⁻¹; in assay [8] it was 0.00318 s⁻¹; in assay [11], 0.0063 s⁻¹. Moreover, the kon in assay [1] was 816000 M⁻¹ s⁻¹; in assay [8], 649000 M⁻¹ s⁻¹. Also, the t½ worked out at 1.7 min in [1]; 0.63 min in assay [2]; 0.8 min in [6]; 0.85 min in assay [7]; 3.6 min in [8]; 1.83 min in [11]. Also, the “neutralization IC50, Vero cells” value in assay [3] was found to be 0.254 nM; in assay [4], 0.33 nM; in assay [5] it was 0.0343 nM. The “t½ pH 7.4/t½ pH 6.0” value in assay [9] was found to be 2.2. For the same molecule, it took 0.102 nM to reach a half-maximal effect in [10] (EC50). Besides, the “t½ pH 7.4/t½ pH 5.0” value in [12] amounted to 2.4. The “t½ pH 7.4/t½ pH 5.5” value in [12] was 2.9.

B5: H4H25641P (antibody, V domains shown)
VH: B4 VH with S32Y, G55A, I56S, K58N, A61V, P88A, R100Y, P106Y
VL: EIVLTQSPGTLSLSPGERATLSCGASQSVSSYLAWYQQKPGQTPRLLIYGASSRATGIPDRFSGSGSGTDFTLTISRLEPEDFAVYYCQQYGSSPWTFGQGTKVEIK
B5: the Kd came out at 11.9 nM in [1] and 8.75 nM in assay [8]. In addition, the koff in assay [1] worked out at 0.0188 s⁻¹; in [2], 0.0204 s⁻¹; in assay [6], 0.0133 s⁻¹; in assay [7], 0.0159 s⁻¹; in assay [8] it was 0.00922 s⁻¹; in assay [11], 0.0191 s⁻¹. Moreover, the kon was 1.59e+06 M⁻¹ s⁻¹ in [1] and 1.05e+06 M⁻¹ s⁻¹ in assay [8]. Besides, the t½ turned out to be 0.6 min in assay [1]; 0.57 min in [2]; 0.9 min in [6]; 0.73 min in assay [7]; 1.3 min in assay [8]; 0.61 min in assay [11]. For the same molecule, the “neutralization IC50, Vero cells” value was found to be 0.356 nM in [3], 0.212 nM in assay [4] and 0.0371 nM in assay [5]. Also, the “t½ pH 7.4/t½ pH 6.0” value in [9] is 0.8. Further, in assay [10], the EC50 amounted to 2.87 nM. Further, the “t½ pH 7.4/t½ pH 5.0” value in assay [12] was determined as 0.7. Further, in assay [12], the “t½ pH 7.4/t½ pH 5.5” value was 1.1.

B6: H4H25592P (antibody, V domains shown)
VH: B4 VH with I56S, K76N, T78I, P88A, R100W
VL: B4 VL with N31S, K39I, N45K, G50A
Regarding B6, the Kd turned out to be 1.02 nM in assay [1] and 0.502 nM in [8]. Moreover, the koff in assay [1] came out at 0.00165 s⁻¹; in [2], 0.00736 s⁻¹; in assay [6], 0.00658 s⁻¹; in assay [7] it was 0.00503 s⁻¹; in assay [8], 0.000676 s⁻¹; in [11], 0.00174 s⁻¹. Further, the kon in assay [1] was 1.61e+06 M⁻¹ s⁻¹; in assay [8] it was 1.35e+06 M⁻¹ s⁻¹. Besides, the t½ is 7 min in [1]; 1.57 min in [2]; 1.8 min in assay [6]; 2.3 min in assay [7]; 17.1 min in [8]; 6.63 min in assay [11]. The “neutralization IC50, Vero cells” value in assay [3] is 0.218 nM; in assay [4], 0.553 nM; in assay [5] it was 0.0426 nM. Further, in assay [9], the “t½ pH 7.4/t½ pH 6.0” value was determined as 2.9. Further, the EC50 in [10] stood at 0.213 nM. Moreover, the “t½ pH 7.4/t½ pH 5.0” value in [12] stood at 3.8. Further, the “t½ pH 7.4/t½ pH 5.5” value in assay [12] amounted to 4.2.

Usually Kd stands for the concentration at which binding is half-saturated. Higher therefore signals weaker binding. The koff is the first-order rate constant of dissociation. High values mean fast dissociation, low ones slow dissociation. As a reminder, the kon is the second-order rate constant of association. What is called t½ is how long it takes for the measured level to halve. A lower t½ goes with rapid decline. What is called EC50 is the concentration that produces a half-maximal response.
